In patent US20170056473A1 (published 2017):

Assays:
Assay in all cases: cytokine release
[1] = biological target: T1, EBV LMP1; printed as LMP1*125 (the same label as …) peptide on HLA-A*02:01 (human)
T1 peptide: YLQQNWWTL

[2] = biological target: T2, EBV LMP1; LMP1*125 peptide on HLA-A*02:01 (human)
T2 peptide: YLLEMLWRL

[3] = biological target: T3, EBV LMP1; LMP1*92 peptide on HLA-A*02:01 (human)
T3 peptide: LLLIALWNL

[4] = biological target: T4, EBV LMP1; LMP1*32 peptide on HLA-A*02:01 (human)
T4 peptide: LLLALLFWL

[5] = biological target: T5, EBV LMP1; LMP1*167 peptide on HLA-A*02:01 (human)
T5 peptide: LLVDLLWLL

[6] = biological target: T6, EBV LMP1; LMP1*173 peptide on HLA-A*02:01 (human)
T6 peptide: WLLLFLAIL

B1: LMP1*166 S4-12 TCR (TCR, V domains shown)
Valpha: GEQVEQRPPHLSVREGDSAVIICTYTDPNSYYFFWYKQEPGAGLQLLMKVFSSTEINEGQGFTVLLNKKDKQLSLNLTAAHPGDSAVYFCAVSGTGGYKVVFGSGTRLLVSP
Vbeta: NSKVIQTPRYLVKGQGQKAKMRCIPEKGHPVVFWYQQNKNNEFKFLINFQNQEVLQQIDMTEKRFSAECPSNSPCSLEIQSSEAGDSALYLCASNQLGSSYEQYFGPGTRLTVL
binding result [1]: no recognition | binding result [2]: no recognition | binding result [3]: no recognition | binding result [4]: no recognition | binding result [5]: recognises | binding result [6]: no recognition
